Patent US6410329

Columns and labels:
Experiment in all cases: cell_activity
[1] = tested on: VirD1 (Agrobacterium tumefaciens); settings: VirD1 alone
[2] = biological target: T1, VirD1-VirD2 translational fusion (p35SD1D2) (Agrobacterium tumefaciens) (UniProt P06668)
T1 sequence: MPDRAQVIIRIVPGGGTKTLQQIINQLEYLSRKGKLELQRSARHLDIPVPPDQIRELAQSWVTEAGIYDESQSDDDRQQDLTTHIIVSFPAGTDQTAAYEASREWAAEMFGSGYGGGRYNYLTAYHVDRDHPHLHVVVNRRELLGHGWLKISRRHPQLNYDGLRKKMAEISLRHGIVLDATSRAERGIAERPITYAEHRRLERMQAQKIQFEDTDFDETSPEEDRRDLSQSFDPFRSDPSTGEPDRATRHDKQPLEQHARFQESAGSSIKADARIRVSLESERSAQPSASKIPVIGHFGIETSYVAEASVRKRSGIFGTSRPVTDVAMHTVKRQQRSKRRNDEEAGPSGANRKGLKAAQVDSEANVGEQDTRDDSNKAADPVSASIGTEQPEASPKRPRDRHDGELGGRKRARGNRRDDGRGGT

[3] = biological target: T2, VirD2-VirD1 translational fusion (p35SD2D1) (Agrobacterium tumefaciens) (UniProt P06668)
T2 sequence: T1 sequence

[4] = maize, pwBarRBLuc geminivirus vector

Sequence | activity (% of control luciferase) ([1]; maize) | activity (% of control luciferase) ([1]; tobacco) | activity (% of control luciferase) ([2]; maize, 1 ug + 4 ug) | activity (% of control luciferase) ([2]; tobacco, 0.5 ug + 2 ug) | activity (% of control luciferase) ([3]; maize, 1 ug + 4 ug) | activity (% of control luciferase) ([3]; tobacco, 0.5 ug + 2 ug) | activity (Luc/GUS ratio) ([1]; maize, target alone 15.0) | activity (% of control luciferase) [2, 4] | activity (% of control luciferase) [3, 4]
ATCCGGCAGGATATATACCGTTGTAATTCTGCA (double strand) [T-DNA right border duplex, pRB(+)Luc] | 105 | 72 | 2.4 | 5.4 | 2.6 | 5 |  |  | 
ATCCGGCAGGATATATACCGTTGTAATTCTGCA (double strand) [T-DNA right border reversed, pRB(-)Luc] |  | 95 |  |  |  |  |  |  | 
ATCCGGCAGGATATATACCGTTGTAATTCTGCA (double strand) [right border in WDV replicon pwi35SRBLuc] |  |  |  |  |  |  | 8.1 | 6 | 3.6
